Experimental data from US5593834.

Test system: AluI restriction endonuclease
Experiment: cleavage_in_vitro
[1] = 8 mM MgCl2, 2 mM CaCl2, 10 mM Tris pH 7.5

Sequence “ATATAGCTATAT (double strand) [(AT)2 12-mer]” has a relative cleavage rate constant (fold kcomp vs (AA)2) (fastest substrate, 8 mM MgCl2, 2 mM CaCl2, 10 mM Tris pH 7.5, 16% glycerol) of 3.02.

“ATATATAGCTATATAT (double strand) [(AT)3 16-mer]” was tested, and the binding signal (fold kcomp vs (AA)3) [1] was 2.95.

Sequence “ATATATATAGCTATATATAT (double strand) [(AT)4 20-mer]” has a binding signal (fold kcomp vs (AA)4) [1] of 3.
